Assays:
Assay type in all cases: in vivo, human
[1] = tested on: non-Hodgkin's lymphoma; assay: Clinical monotherapy of rhTNFm1, non-Hodgkin's lymphoma; settings: for Response Rate (%) CR / Response Rate (%) CR + PR / Response Rate (%) PR / Efficacy CR / Efficacy MR / Efficacy PD / Efficacy PR / Efficacy SD: Non-Hodgkin's, monotherapy; for Efficacy CR / Efficacy MR / Efficacy PD / Efficacy PR / Efficacy SD: patient count
From the text: (§1) Patients were selected based on the following criteria: i) measurable, objective tumor; ii) Karnofsky performance status (KPS)≧60; iii) age 18-75; iv) major organs in basically normal condition; v) no chemotherapy, radiotherapy and biologic therapy within the last month; vi) predicted ≧3 mon. survival; and vii) with patient's informed consent signed.
(§2) Patients were excluded based on the following criteria: i) with history of allergic reactions to TNF or its derivatives; ii) pregnant or lactating women; iii) major organs with obvious damages or malfunction; iv) in ≧38° C. fever; v) with obvious tendency to haemorrhage; vi) with history of hypo- or hypertension; vii) with serious albuminemia; and viii) with strong tendency of disobedience or resistance.
(§3) Patients were removed from the evaluation if any of the following conditions apply: i) treatment was not completed according to the protocol; ii) incomplete records; and iii) treatment using cancer therapies not in the protocol. However, patients who withdrew due to adverse reactions to the therapy were still included in the evaluation.
(§4) The results of the treatment of tumors were evaluated based the following criteria: i) complete response (CR)—complete disappearance of observable pathological changes for at least 4 weeks; ii) partial response (PR)—reduction by ≧50% in tumor size measured by the product of the maximum circular and vertical dimensions for at least 4 weeks; iii) minimum response (MR)—reduction by >25% but <50% in tumor size measured by the product of the maximum circular and vertical dimensions for at least 4 weeks; iv) stabilized (SD)—reduction by ≦25% but without increase by >25% in tumor size measured by the product of the maximum circular and vertical dimensions for at least 4 weeks; and progression (PD): increase by >25% in tumor size in one or more sites.
(§5) Patients rested on day 1 and 2. The treatment cycle was 3-4 weeks.
(§6) Table II summaries results of the treatment of patients with malignant lymphoma, classified according to Hodgkin's disease and non-Hodgkin's lymphoma. Within each of category of lymphoma, patients were further classified into two groups: chemo-naïve and chemo-refractory. The chemo-naïve patients were patients who had never been treated with any anti-cancer agent previously whereas chemo-refractory patients were ones who failed treatment with one or more anti-cancer agent.

[2] = tested on: malignant tumors; assay: Clinical monotherapy of rhTNFm1, all malignant tumors (Total); settings: Total of tumor indications, 141 patients
From the text: as §1, §2, §3, §4, §5

[3] = tested on: malignant pleural effusion; assay: Clinical monotherapy of rhTNFm1, malignant pleural effusion; settings: 141 patients
From the text: as §1, §2, §3
(§7) The results of the treatment of malignant pleural effusion (or hydrothorax) and ascites were evaluated based on a modified Millar standard (Millar J W, Hunfer A M, Home N W. (1980) “Inerapleural immunotherapy with CP”, in Recurrent Malignant Pleural Effusions. Thorax 35:856): i) complete response (CR)—complete disappearance of pleural effusion or ascites for at least 1 month; ii) partial response (PR)—reduction by at least 1 grade for at least 1 month; iii) minimum response (MR)—reduction in the levels of pleural effusion or ascites within the same grade for at least 1 month; iv) stabilized (SD)—levels of pleural effusion or ascites maintained within the same grade for at least 1 month; and progressed (PD): increase in the levels of pleural effusion or ascites compared with those before the treatment.
as §5
(§8) It is noted that Table III includes the patients who withdrew due to […], including 1 with malignant pleural effusion and 1 with malignant ascites. For patients with malignant ascites, rhTNFm1 was reconstituted in 30-50 ml normal saline and administered intraperitoneally (i.p.) at 2,000,000-3,000,000 units each time, 1-2 times a week, with 2-3 weeks as one treatment cycle. Optionally, rhTNFm1 was administered to the patients by alternating between i.p. injection and i.v. injection (at 600,000-900,000 unit/m^2 per day continuing for 28 days as one treatment cycle). On the day when rhTNFm1 was administered via i.p. injection, administration of rhTNFm1 via i.v. injection was stopped.

[4] = tested on: Malignant Lymphoma; assay: Clinical monotherapy of rhTNFm1, malignant lymphoma; settings: 71 patients
From the text: as §1, §2, §3, §4, §5, §6

[5] = tested on: malignant pleural effusion or ascites; assay: Clinical monotherapy of rhTNFm1, malignant pleural effusion or ascites (Total); settings: 169 patients
From the text: as §1, §2, §3, §7, §5, §8

[6] = tested on: Lung Cancer; assay: Clinical monotherapy of rhTNFm1, lung cancer
From the text: as §1, §2, §3, §4, §5

[7] = Chemo-naïve Grade I & II, 4 patients
[8] = Chemo-naïve Grade III & IV, 5 patients
[9] = Lung Cancer, 20 patients, monotherapy
[10] = patient count, Lung Cancer, 20 patients, monotherapy

B1: rhTNFm1: Recombinant human TNF-α mutant 1 expressed in E. coli; SEQ ID NO: 3 with N-terminal methionine (FIG. 1, 2) (protein)
chain: MRKRKPVAHVVANPQAEGQLQWLNRRANALLANGVELRDNQLVVPSEGLYLIYSQVLFKGQGCPSTHVLLTHTISRIAVSYQTKVNLLSAIKSPCQRETPEGAEAKPWYEPIYLGGVFQLEKGDRLSAEINRPDYLDFAESGQVYFGIIAQ
modifications: rhTNFm1 with Met
[1]; [7]
  Response Rate (%) CR: 0%
  Response Rate (%) CR + PR: 75%
  Response Rate (%) PR: 75%
  Efficacy CR: 0
  Efficacy MR: 1
  Efficacy PD: 0
  Efficacy PR: 3
  Efficacy SD: 0
[1]; [8]
  Response Rate (%) CR: 0%
  Response Rate (%) CR + PR: 60%
  Response Rate (%) PR: 60%
  Efficacy CR: 0
  Efficacy MR: 0
  Efficacy PD: 0
  Efficacy PR: 3
  Efficacy SD: 2
[1]; Chemo-naïve Total, 9 patients
  Response Rate (%) CR: 0%
  Response Rate (%) CR + PR: 66.67%
  Response Rate (%) PR: 66.67%
  Efficacy CR: 0
  Efficacy MR: 1
  Efficacy PD: 0
  Efficacy PR: 6
  Efficacy SD: 2
[1]; Chemo-refractory, 56 patients
  Response Rate (%) CR: 3.57%
  Response Rate (%) CR + PR: 25%
  Response Rate (%) PR: 21.43%
  Efficacy MR: 7
  Efficacy PD: 10
  Efficacy PR: 12
  Efficacy SD: 25
[1]; one NHL patient, before 50
  quality of life score after the treatment: 60
[1]; one NHL patient, before 90
  KPS after the treatment: 90
[2]
  Response Rate (%) CR: 1.42%
  Response Rate (%) CR + PR: 16.31%
  Response Rate (%) PR: 14.89%
[2]; patient count
  Efficacy CR: 2
  Efficacy MR: 14
  Efficacy PD: 29
  Efficacy PR: 21
  Efficacy SD: 75
[3]
  Response Rate (%) CR: 9.93%
  Response Rate (%) PR: 64.54%
[3]; patient count
  Efficacy CR: 14
  Efficacy MR: 9
  Efficacy PD: 1
  Efficacy PR: 91
  Efficacy SD: 26
[4]
  Response Rate (%) CR: 2.82%
  Response Rate (%) CR + PR: 28.17%
  Response Rate (%) PR: 25.35%
[4]; patient count
  Efficacy CR: 2
  Efficacy MR: 8
  Efficacy PD: 11
  Efficacy PR: 18
  Efficacy SD: 32
[5]
  Response Rate (%) CR: 8.88%
  Response Rate (%) CR + PR: 69.23%
  Response Rate (%) PR: 60.36%
[5]; patient count
  Efficacy CR: 15
  Efficacy MR: 12
  Efficacy PD: 2
  Efficacy PR: 102
  Efficacy SD: 38
[6]; [9]
  Response Rate (%) CR: 0.00%
  Response Rate (%) CR + PR: 5.00%
  Response Rate (%) PR: 5.00%
[6]; one lung cancer patient
  pleural fluid, reexamination about 1 month later: little pleural fluid remained
  tumor diameter, reexamination about 1 month later, CT scanning: 3.5 cm
[6]; one lung cancer patient, before 5 cm
  tumor diameter after the treatment, CT scanning: 2.5 cm
[6]; one lung cancer patient, before 40
  quality of life score after the treatment: 53
[6]; one lung cancer patient, before 70
  KPS after the treatment: 90
[6]; one lung cancer patient, before a large amount of pleural fluid
  pleural fluid after the treatment: small amount of pleural fluid remained
[6]; [10]
  Efficacy CR: 0
  Efficacy MR: 2
  Efficacy PD: 4
  Efficacy PR: 1
  Efficacy SD: 13

From patent US20060263331A1, “Therapeutic use of tumor necrosis factor-alpha mutein” (priority 2002, published 2006)
